Data taken from publication doi:10.1101/2023.06.21.544075 (bioRxiv, 2023).

Experiments:
[1] = biological target: the molecule itself; assay: SEC-MALS
[2] = biological target: the molecule itself; assay: crystal structure

Protein | stoichiometry N [1] | stoichiometry N [2]
hOvst-cleaved hZP2-N1N2N3 (domain or fragment) chain 1: not shown chain 2: not shown | 2 | –
mouse ZP2 NTR ΔN1 construct mZP2-N2N3 (domain or fragment, UniProt P20239 135-360, looked up) PAIQAETHEISEIVVCRRDLISFSFPQLFSRLADENQNVSEMGWIVKIGNGTRAHILPLKDAIVQGFNLLIDSQKVTLHVPANATGIVHYVQESSYLYTVQLELLFSTTGQKIVFSSHAICAPDLSVACNATHMTLTIPEFPGKLESVDFGQWSIPEDQWHANGIDKEATNGLRLNFRKSLLKTKPSEKCPFYQFYLSSLKLTFYFQGNMLSTVIDPECHCESPVS | – | 2
